Experimental data as given in US20260109776A1 (Amgen, published 2026).

T1: cynomolgus monkey CD40 on cells (cynomolgus monkey, UniProt P25942 21-277 (human entry))
T1 construct: also called cyno CD40 on HEK293 cells; CD40 on cynomolgus monkey B cells
T1 chain: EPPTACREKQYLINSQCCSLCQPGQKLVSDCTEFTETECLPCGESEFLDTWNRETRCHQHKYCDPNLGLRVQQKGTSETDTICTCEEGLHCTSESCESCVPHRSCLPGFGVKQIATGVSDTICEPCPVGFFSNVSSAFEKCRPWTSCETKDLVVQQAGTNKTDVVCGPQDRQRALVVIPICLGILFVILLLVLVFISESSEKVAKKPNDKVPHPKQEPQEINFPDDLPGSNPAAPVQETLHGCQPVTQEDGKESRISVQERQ

T2: mouse CD40 on cells (mouse, UniProt P27512 20-289)
T2 construct: whole, on cells; also called mouse CD40 on HEK293 cells; CD40 on mouse B cells
T2 sequence (looked up): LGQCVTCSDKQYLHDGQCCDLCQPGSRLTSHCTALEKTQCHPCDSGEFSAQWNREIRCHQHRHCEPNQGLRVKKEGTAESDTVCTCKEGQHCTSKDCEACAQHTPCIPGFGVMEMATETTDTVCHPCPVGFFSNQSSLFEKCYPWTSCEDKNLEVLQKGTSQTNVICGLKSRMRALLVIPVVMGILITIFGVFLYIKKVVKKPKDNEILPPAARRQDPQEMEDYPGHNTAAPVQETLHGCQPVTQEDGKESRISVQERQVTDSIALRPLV

T3: human TNFR1 (human, UniProt P19438 30-455)
T3 construct: whole, on cells
T3 sequence (looked up): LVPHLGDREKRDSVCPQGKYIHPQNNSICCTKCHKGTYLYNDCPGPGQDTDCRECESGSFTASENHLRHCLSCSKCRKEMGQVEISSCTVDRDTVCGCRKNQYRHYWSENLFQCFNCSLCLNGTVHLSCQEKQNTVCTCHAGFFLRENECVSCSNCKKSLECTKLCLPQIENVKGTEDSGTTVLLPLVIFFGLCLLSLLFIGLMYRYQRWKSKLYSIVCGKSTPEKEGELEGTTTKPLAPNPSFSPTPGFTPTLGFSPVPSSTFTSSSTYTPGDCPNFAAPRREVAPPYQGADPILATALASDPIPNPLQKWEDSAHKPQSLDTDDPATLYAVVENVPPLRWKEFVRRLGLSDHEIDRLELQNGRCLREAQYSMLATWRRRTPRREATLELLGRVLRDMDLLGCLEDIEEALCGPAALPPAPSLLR

T4: human TNFR2 (human, UniProt P20333 23-461)
T4 construct: whole, on cells
T4 sequence (looked up): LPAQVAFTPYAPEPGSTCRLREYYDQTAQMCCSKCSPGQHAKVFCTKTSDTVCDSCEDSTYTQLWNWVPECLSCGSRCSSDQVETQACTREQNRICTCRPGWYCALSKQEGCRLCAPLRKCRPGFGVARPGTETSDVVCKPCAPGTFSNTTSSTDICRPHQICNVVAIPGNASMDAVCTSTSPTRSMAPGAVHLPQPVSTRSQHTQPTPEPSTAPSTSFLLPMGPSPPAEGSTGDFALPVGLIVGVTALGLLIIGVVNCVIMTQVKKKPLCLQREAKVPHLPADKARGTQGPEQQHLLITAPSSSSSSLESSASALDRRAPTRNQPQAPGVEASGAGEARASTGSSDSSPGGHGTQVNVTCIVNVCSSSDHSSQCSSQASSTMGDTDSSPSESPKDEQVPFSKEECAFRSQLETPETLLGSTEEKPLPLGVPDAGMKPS

T5: human TNFR14 (human, UniProt Q92956 39-283)
T5 construct: whole, on cells
T5 sequence (looked up): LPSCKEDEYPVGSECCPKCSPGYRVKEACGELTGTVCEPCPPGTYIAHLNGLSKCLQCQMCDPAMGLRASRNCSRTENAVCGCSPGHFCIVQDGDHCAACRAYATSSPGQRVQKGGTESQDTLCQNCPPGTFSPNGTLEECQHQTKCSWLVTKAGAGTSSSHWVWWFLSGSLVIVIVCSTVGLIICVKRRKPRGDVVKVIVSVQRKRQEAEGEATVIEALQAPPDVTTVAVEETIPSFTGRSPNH

B1: 39C2 (antibody, IgG4, V domains shown)
VH: QVQLVQSGTEVKKPGASVKVSCKASGYTFPGYYMHWVRQAPGQGLEWMGWINPDSGGTKYTQKFQGRVTLTRDASVSTAYIDLNRLRSDDTAVYYCARERCRTTNCYLDYWGQGSLVTVSS
VL: QSALTQPASVSGSPGQSITISCTGTSSDVGNYNLVSWYQQHPGKAPKLMIYEVNRRPSGVSNRFSGSKSGNTASLTISGLQAEDEAEYYCCSYAGRDTFVVFGGGTKLTVLG
notes: also called 4887-1
B2: 29H10 (antibody, V domains shown)
VH: QVQLVQSGAEVTKPGASVKVSCKASGYTFAGYYMHWVRQAPGQGLEWMGWINPHSGGTNYAQKFQDRVTMTRDTSINTAYMELSRLRSDDTAVYYCARERISMVRGVGHNWFAPWGQGTLVTVSS
VL: DIQMTQSPSSLSASVGDRVTITCRASQDISNNLAWFQQKPGKPPKSLMYAASSLHSGVPSTFSGSGSGTDFTFTISSLQPEDFATYYCQQYNSYPLTFGGGTKVEIRR
notes: also called 4877-1
B3: 37A6 (antibody, IgG4, V domains shown)
VH: QVQLVESGGGLVKPGGSLRLSCAASEFTFSDYYMSWIRQAPGKGLEWVSYISRSGDTIYYADSVKGRFTISRDNAKNSLYLQMNGLRAEDTAVYYCARDLAAGATGGLDCWGQGTLVTVSS
VL: SYELTQPPSVSVSPGQTASITCSGERLGNKYICWYQQKPGQSPVLVIYQDFKRPSGIPERFSGSNSGITATLTISGTQAMDEADYYCQAWDSRTVVFGGGTKLTVLG
notes: also called 4865-1
B4: 35F11 (antibody, IgG4, V domains shown)
VH: QVQLVESGGGVVQPGRSLRLSCAASGFTLSSYGMHWVRQAPGKGLEWVAVIWYDGSNKYYADSVKGRVTISRDNSKNTLYLQMNSLRAEDTAVYYCTRDGRNYVYFDNWGQGTLVTVSS
VL: QSALTQPRSVSGSPGQSVTISCTGTSSDVGGYIFVSWYQQHPGKAPKLMIYDVSKRPSGVPDRFSGSKSVNTASLTISGLQAEDETDYYCCSYAGNYTYVFGTGTKVTVLG
notes: also called 4868-1
B5: 33H6 (antibody, IgG4, V domains shown)
VH: QVQLVQSGAEVKKPGASVKVSCKASGYTFPGYYMYWLRQAPGQGLEWMGWINPDSGDTNYAQKFQGRVTMTRDTSISTAFMELSRLRSDDTAVYYCAREKPRYFDSFYYYLMDVWGQGTTVTVSS
VL: DIQMTQSPSSLSASVGDRVTITCRAGQNISRHLNWYQQNPGKAPKVLIHPASSLPSGVPSRFSGSGSGTDFSLTISSLQPEDFGTYFCQQSYSTPPTFGGGTKVELKR
notes: also called 4883-1
B6: 36F3 (antibody, IgG4, V domains shown)
VH: QVQLQQSGPGLVKPSQTLSLTCAISGDSVSSSRTAWNWIRQSPSRGLEWLGRTYYRSKWYHDYSVSVKSRITIDPDTSKNQFSLQLNSVTPEDTAVYYCARGAAPFDYWGQGTLVTVSS
VL: EIVLTQSPGTLSLSPGERATLSCRASQSVSSNYLAWYQQKPGQAPRALIYAASNRAAGISDRFSGSGSGTDFTLTISRLEPEDFAVYFCQQYGSSPLTFGGGTKVEIKR
notes: also called 4891-1

The binders below were run against human CD40 (human, UniProt P25942 21-193, limits assumed) (assay: Octet).
human CD40, sequence (P25942 21-193 limits assumed): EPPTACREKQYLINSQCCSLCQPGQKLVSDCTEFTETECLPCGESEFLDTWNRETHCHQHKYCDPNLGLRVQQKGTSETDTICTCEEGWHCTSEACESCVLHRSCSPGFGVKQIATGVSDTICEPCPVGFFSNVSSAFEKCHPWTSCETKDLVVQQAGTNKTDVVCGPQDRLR
Description: (§1) The binding affinity of anti-human CD40 antibodies to human and cynomolgus monkey CD40 was measured by Octet assay (Table 3), quantifying association rate (Kon), disassociation rate (Kdis), and equilibrium binding constant (KD). Cross-reactivity of anti-CD40 antibodies to related TNF receptor superfamily (TNFRSF) members was evaluated by expressing human TNFR1, TNFR2, TNFR10, or TNFR14 on HEK293 cells by transient transfection of expression vectors encoding these genes. Binding of indicated anti-human CD40 antibody to these transfected cells was determined by flow cytometry. […] Cross-reactivity of anti-CD40 antibodies to cynomolgus monkey and mouse CD40 was evaluated by expressing cynomolgus monkey or mouse CD40 on HEK293 cells by transient transfection of expression vectors encoding these genes. Binding of indicated anti-human CD40 antibody to cells overexpressing cynomolgus monkey and mouse CD40 was determined by flow cytometry.

| Binder | Kd | koff | kon |
| --- | --- | --- | --- |
| B1 | 1.02 nM | 0.000614 s⁻¹ | 599000 M⁻¹ s⁻¹ |
| B2 | 0.41 nM | 0.000164 s⁻¹ | 398000 M⁻¹ s⁻¹ |
| B3 | 1.1 nM | 0.000672 s⁻¹ | 612000 M⁻¹ s⁻¹ |
| B4 | 0.55 nM | 0.00031 s⁻¹ | 556000 M⁻¹ s⁻¹ |
| B5 | 1.34 nM | 0.00068 s⁻¹ | 509000 M⁻¹ s⁻¹ |
| B6 | 6.87 nM | 0.000443 s⁻¹ | 64500 M⁻¹ s⁻¹ |

The binders below were run against T6, human CD40 on cells (human, UniProt P25942 21-277) (assay: cell-based or functional assay).

| Binder | human B cell proliferation, no crosslinking, EC50 | human B cell proliferation, no crosslinking, Max Fold Change | human B cell proliferation, with protein G crosslinking, EC50 | human B cell proliferation, with protein G crosslinking, Max Fold Change |
| --- | --- | --- | --- | --- |
| B1 | > 16.7 nM | 1.24 fold | 0.529 nM | 23 fold |
| B2 | > 16.7 nM | 1.35 fold | 0.235 nM | 18.2 fold |
| B3 | > 16.7 nM | 1.19 fold | 0.504 nM | 27.1 fold |
| B4 | > 16.7 nM | 1.33 fold | 0.371 nM | 24.2 fold |
| B5 | > 16.7 nM | 1.21 fold | 0.237 nM | 18.2 fold |
| B6 | > 16.7 nM | 1.83 fold | 0.558 nM | 16.9 fold |

Target: T1, cynomolgus monkey CD40 on cells
Experiment: flow cytometry, HEK293 transfectants vs control cells
Description: as §1

| Binder | fold over control (gMFI) |
| --- | --- |
| B1 | 87 fold |
| B2 | 71 fold |
| B3 | 92 fold |
| B4 | 76 fold |
| B5 | 74 fold |
| B6 | 82 fold |

Each binder was assayed against T2, mouse CD40 on cells in the same assay as above.
Description: as §1

| Binder | fold over control (gMFI) |
| --- | --- |
| B1 | 0.9 fold |
| B2 | 0.8 fold |
| B3 | 0.9 fold |
| B4 | 0.8 fold |
| B5 | 0.9 fold |
| B6 | 0.9 fold |

Each binder was assayed against T3, human TNFR1 in the same assay as above.
Description: as §1

| Binder | fold over control (gMFI) |
| --- | --- |
| B1 | 1 fold |
| B2 | 0.98 fold |
| B3 | 0.99 fold |
| B4 | 1 fold |
| B5 | 1 fold |
| B6 | 0.99 fold |

These binders were tested against T4, human TNFR2 in the same assay as above.
Description: as §1

| Binder | fold over control (gMFI) |
| --- | --- |
| B1 | 0.9 fold |
| B2 | 0.88 fold |
| B3 | 0.87 fold |
| B4 | 0.85 fold |
| B5 | 0.81 fold |
| B6 | 0.92 fold |

These binders were tested against T7, human TNFR10 (human) in the same assay as above.
T7 construct: whole, on cells; Name as printed is ambiguous (TNFRSF10A-D)
Description: as §1

| Binder | fold over control (gMFI) |
| --- | --- |
| B1 | 0.86 fold |
| B2 | 0.89 fold |
| B3 | 0.88 fold |
| B4 | 0.73 fold |
| B5 | 0.77 fold |
| B6 | 0.86 fold |

These binders were tested against T5, human TNFR14 in the same assay as above.
Description: as §1

| Binder | fold over control (gMFI) |
| --- | --- |
| B1 | 0.89 fold |
| B2 | 0.84 fold |
| B3 | 0.87 fold |
| B4 | 0.74 fold |
| B5 | 0.8 fold |
| B6 | 0.88 fold |

These binders were tested against T6, human CD40 on cells (assay: flow cytometry, labelled CD40L on CD40-293T cells, antibody at 2.5 ug/ml).
Description: Percent ligand binding inhibition was calculated as [(CD40L binding gMFI in the absence of anti-CD40)−(CD40L binding gMFI in the presence of anti-CD40)]/(CD40L binding gMFI in the absence of anti-CD40). gMFI: geometric mean fluorescent intensity. All anti-CD40 antibodies show minimal effects on the ability of CD40L to bind to the CD40 receptor (Table 7).
Target sequence in this assay (P25942 21-277 limits assumed): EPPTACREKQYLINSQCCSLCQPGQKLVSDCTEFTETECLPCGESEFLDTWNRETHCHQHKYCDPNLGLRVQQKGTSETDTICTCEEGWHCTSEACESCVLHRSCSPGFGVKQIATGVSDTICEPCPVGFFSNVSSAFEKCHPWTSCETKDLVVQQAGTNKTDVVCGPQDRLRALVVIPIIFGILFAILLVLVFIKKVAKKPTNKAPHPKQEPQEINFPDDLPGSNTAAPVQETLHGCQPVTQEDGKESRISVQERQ

| Binder | Ligand Binding Inhibition (%) |
| --- | --- |
| B1 | 7% |
| B2 | -11% |
| B3 | -19% |
| B4 | -15% |
| B5 | -8% |
| B6 | 1% |
